{"source": "paper PMC5327507", "about": "“Enhancing the thermostability of α-L-rhamnosidase from Aspergillus terreus and the enzymatic conversion of rutin to isoquercitrin by adding sorbitol” (BMC Biotechnology, 2017)", "system": "C[C@@H]1O[C@@H](Oc2ccc([N+](=O)[O-])cc2)[C@H](O)[C@H](O)[C@H]1O", "assay": "purified protein", "conditions": "pH 6.5, 65 °C, no additives", "data": [{"substance": "α-L-rhamnosidase from A. terreus (Rha; synthetic gene MRha; RASE) (Aspergillus terreus)", "values": [{"measurement": "Km", "result": "481 ± 10", "unit": "µM"}]}]}
